From publication PMC5457521

Columns and labels:
[1] = biological target: DENV2 sE FGA02 L107C/A313C, disulfide-linked dimer (Dengue virus serotype 2, strain FGA02); test: SEC
[2] = biological target: DENV2 sE FGA02 A259C, disulfide-linked dimer (Dengue virus serotype 2, strain FGA02); test: SEC-MALS; sE alone, ~150 ug on Superdex 200 10/300 GL, Tris 50 mM, NaCl 500 mM (pH 8.0), 0.4 ml min^−1

DENV2 sE FGA02 L107C/A313C, disulfide-linked dimer (domain or fragment)
stoichiometry N [1]: 2

DENV2 sE FGA02 A259C, disulfide-linked dimer (domain or fragment)
stoichiometry N [2]: 2
